# Source: PMC5979958 (Scientific Reports, 2018)
# Where “and” joins values, the source holds several entries; their conditions need not be identical. Identical values can stand only once.
# Tests used:
# [1] = tested on: MIF/CXCR4-dependent JVM-3 lymphocyte chemotaxis; test: inhibition of MIF-mediated JVM-3 B cell chemotaxis by RLR-containing peptides; format: cell-based, human; conditions: 16 nM WT-MIF, pre-incubated 30 min, migration 24 h, 3–12 replicates, 2–3 experiments
# Experimental: (§1) Migration assays using the CXCR4-expressing JVM-3 B cell line were performed in a transmigration well as previously described[32] using the following modifications. Briefly, JVM-3 B cells were sub-cultured and transferred to media without FBS. A migration assay was performed using 24-well format Transwell membranes (Sigma-Corning; 5 µm pore size) containing 1 × 10^6 JVM-3 cells in the upper chamber. […] As positive control, 8 nM CXCL12 was used. Wells without chemoattractant served as negative control and were used to normalize migration effects to ‘chemotactic index’ (number of migrated cells in the presence of chemoattractant divided by the number of migrated cells in the absence of the chemoattractant) – as described previously. […] Cells were allowed to migrate for 24 h. After migration, cells in the lower chamber were counted using Countbright absolute counting beads (Invitrogen) using a FACSVerse flow cytometer (BD Biosciences, Heidelberg, Germany).
# [2] = tested on: human CXCR4 expressed in S. cerevisiae; conditions: yeast CXCR4 signaling system, in comparison with CXCL12; cited from earlier work
# Description: To address the contribution of the RLR motif to MIF/CXCR4-specific cell signaling responses, we employed a genetically modified strain of Saccharomyces cerevisiae that replaces the yeast ste2 GPCR with human CXCR4 as previously reported. This cell system eliminates complications from mammalian cells that usually express more than one or all MIF cell surface receptors and is based on agonist-mediated activation of CXCR4 leading to a signaling cascade that results in β-galactosidase expression from the Fus1-lacZ reporter plasmid.
# [3] = circular dichroism spectroscopy; format: physicochemical; conditions: for aggregation-tendency: far-UV CD at 1, 2.5, and 5 µM, 10 mM sodium phosphate, pH 7.2, 25 °C
# Experimental: CD spectroscopy provides a good estimation of the secondary structural profile of a protein and records relative changes in average secondary structural content, e.g. when a mutated protein is compared to its wildtype counterpart.
# Far-UV circular dichroism (CD) spectra were recorded in a Jasco 700 CD spectropolarimeter (Jasco Labor- u. Datentechnik GmbH, Groß-Umstadt, Germany). Scans were recorded at 25 °C between 195 and 250 nm as an average of three scans and smoothed to obtain the final data. Spectra were collected at 1.0 nm intervals with a bandwidth of 1 nm in a buffer containing 10 mM sodium phosphate, pH 7.2. […] CD spectra are presented as a plot of mean residue ellipticities. […] Secondary structure fractions were quantitated by the Dichroweb online software webtool by deconvolutions of CD spectra using ContinLL at DichroWeb and the reference spectra set 7[43],[44].
# [4] = tested on: JVM-3 B cells (CXCR4-expressing); test: lymphocyte chemotaxis assay, JVM-3 B cells (chemoattractant); format: cell-based, human; conditions: for chemotactic effect compared with another chemoattractant: WT-MIF compared with CXCL12, RLR mutant compared with WT-MIF
# Experimental: JVM-3 cells (ACC-18) are a chronic B cell leukemia cell line and were kindly provided by Prof. M. Hallek, University of Cologne Medical School, Cologne, Germany. JVM-3 were grown in RPMI media with 1% penicillin/streptomycin and 10% fetal bovine serum (Invitrogen-Thermo Fisher Scientific, Karlsruhe, Germany) essentially as described previously. Miscellaneous cell culture reagents also were bought from Invitrogen-Thermo Fisher Scientific and from PAA (Pasching, Austria). LPS content of the purified WT-MIF and RLR mutant proteins was tested by limulus amoebocyte assay (LAL, Lonza, Cologne, Germany) following the manufacturer’s recommendation. All other reagents were obtained from Sigma, Merck, Roth, or Calbiochem, and were of the highest purity degree available.
# as §1
# [5] = target: the molecule itself; test: SEC; Superdex 75 in 20 mM sodium phosphate buffer, pH 7.2, after Q sepharose; peaks at approximately 23 and 38 kDa
# [6] = size exclusion chromatography, oligomeric state; format: physicochemical; conditions: Superdex 75, 20 mM sodium phosphate, pH 7.2
# Experimental: The mutant protein was eluted from the anion exchange column via salt gradient and subjected to size exclusion chromatography (SEC) for further purification.
# Following Q sepharose, the protein was further purified by size exclusion chromatography (SEC, Superdex 75, GE Healthcare) in 20 mM sodium phosphate buffer, pH 7.2, i.e. buffer conditions compatible with MIF bioactivity.
molecule,measurement,setting,value
"ERLRISPDRVYINYY [MIF(86–100), RLR-spanning MIF peptide]",inhibition of WT-MIF-mediated JVM-3 chemotaxis,[1]; peptide 10 nM and 100 nM,trend towards inhibition
same,inhibition of WT-MIF-mediated JVM-3 chemotaxis,[1]; peptide 1 µM,significant and complete blockade
"YSKLLCGLLAERLRI [MIF(76–90), RLR-spanning MIF peptide]",inhibition of WT-MIF-mediated JVM-3 chemotaxis,[1]; peptide 10 nM and 100 nM,ablated
"macrophage migration inhibitory factor (protein, UniProt P14174 2-115, looked up, recombinant human MIF) Macrophage migration …: PMFIVNTNVPRASVPDGFLSELTQQLAQATGKPPQYIAVHVVPDQLMAFGGSSEPCALCSLHSIGKIGGAQNRSYSKLLCGLLAERLRISPDRVYINYYDMNAANVGWNNSTFA",type of agonism at CXCR4,[2],partial allosteric agonism
same,aggregation-tendency,[3],neither protein showed an aggregation-tendency
same,chemotactic effect compared with another chemoattractant,[4],lower than that of CXCL12
"R87A-L88A-R89A-MIF (ligand, human, UniProt P14174 1-115, looked up, also called RLR mutant; MIF R87A-L88A-R89A triple mutant; source: E. coli BL21/DE3 (pET11b), purified (Q sepharose anion exchange, Superdex 75 SEC)) MPMFIVNTNVPRASVPDGFLSELTQQLAQATGKPPQYIAVHVVPDQLMAFGGSSEPCALCSLHSIGKIGGAQNRSYSKLLCGLLAEAAAISPDRVYINYYDMNAANVGWNNSTFA",stoichiometry N,[5],2 and 3
same,increase of random coil content vs WT-MIF,[3]; CD deconvolution by Dichroweb,approximately 20%
same,reduction of α-helix content vs WT-MIF,[3]; CD deconvolution by Dichroweb,12%
same,reduction of β-strand percentage vs WT-MIF,[3]; CD deconvolution by Dichroweb,7%
same,decrease in ordered secondary structural content vs WT-MIF,[3]; CD spectroscopy,20%
same,aggregation-tendency,[3],neither protein showed an aggregation-tendency
same,"approximate molecular size of SEC peak, first species",[6]; suggests dimers,~23 kDa
same,"approximate molecular size of SEC peak, second species",[6]; suggests trimers,~38 kDa
same,chemotactic activity on JVM-3 B cells,"[4]; RLR mutant 8 nM, 16 nM, 32 nM, p = ns, 24 h, Transwell 5 µm",did not exhibit a significant chemotactic activity
same,chemotactic activity on JVM-3 lymphocytes,[4]; RLR mutant 16 nM (optimal concentration of WT-MIF),failed to show any chemotactic activity
same,chemotactic activity on JVM-3 lymphocytes,"[4]; RLR mutant 32 nM, effect did not reach statistical significance",slight increase in activity
same,chemotactic effect compared with another chemoattractant,[4],Impaired chemotactic effect
same,chemotactic effect compared with another chemoattractant,[4]; listed as MIF R87A-L88A-R89A triple mutant,reduced cell migratory response
same,chemotactic effect compared with another chemoattractant,[4]; listed as RLR-mutant of MIF,reduction
